In paper PMC5427921 (2017) one finds Kd data, which are given here for two molecules.

In general, Kd refers to the equilibrium constant for the complex coming apart.

Among the targets are PRL3 R138E (human, UniProt O75365 1-169, R138E); PRL3 C49A (human, UniProt O75365 1-169, C49A); PRL3 C49S (human, UniProt O75365 1-169, C49S); PRL3 C104S (human, UniProt O75365 1-169, C104S); PRL3 L108A (human, UniProt O75365 1-169, L108A); PRL3 C104A (human, UniProt O75365 1-169, C104A); PRL3 D72A (human, UniProt O75365 1-169, D72A).
Common to all, as to assay: ITC
Background: In ITC the heat of successive injections is recorded.

Assay [1] has as its target PRL3 with Arg138 mutated to alanine (human, UniProt O75365 1-169, Arg138 to alanine).
The target in assay [2] is PRL3 with the catalytic cysteine (Cys104) mutated to glutamic acid (human, UniProt O75365 1-169, Cys104 to glutamic acid).
The target in assay [3] is CBS-pair domain of human CNNM3 (GST tag removed) (human, UniProt Q8NE01 309-452).

B1: CNNM3 CBS-pair domain as a GST fusion (domain or fragment)
chain: LRCRTVEDVLTPLEDCFMLDASTVLDFGVLASIMQSGHTRIPVYEEERSNIVDMLYLKDLAFVDPEDCTPLSTITRFYNHPLHFVFNDTKLDAVLEEFKRGKSHLAIVQKVNNEGEGDPFYEVLGLVTLEDVIEEIIRSEILDE
Regarding B1, the Kd was 530 nM with PRL3 R138E; 72 nM in the assay with PRL3 C49A; 320 nM in [1]; 105 nM in the assay with PRL3 C49S; 1400 nM with PRL3 C104S; 1700 nM in the assay with PRL3 L108A. Besides, the results for the Kd (with PRL3 C104A; in assay [2]; with PRL3 D72A) were 180 nM, 2800 nM and 215 nM, respectively.

B2: PRL2 phosphatase (as used in ITC) (enzyme)
chain: MNRPAPVEISYENMRFLITHNPTNATLNKFTEELKKYGVTTLVRVCDATYDKAPVEKEGIHVLDWPFDDGAPPPNQIVDDWLNLLKTKFREEPGCCVAVHCVAGLGRAPVLVALALIECGMKYEDAVQFIRQKRRGAFNSKQLLYLEKYRPKMRLRFRDTNGHCCVQ
Consider B2, for which binding in assay [3] was characterised by a dissociation constant (Kd) of 11 nM.
